Assay results as given in PMC11723951.

Target: CBX5^MBD chimera (CBX5 in which the chromodomain was replaced by the MeCP2 methyl-DNA binding domain) (UniProt P51608)

- chromocenter partition coefficient of the HRD in Suv39h1/2 null MEFs upon CBX5^MBD co-expression (1.33 without it; 11.54 in wild-type cells), live-cell imaging: 4.43
Substance: KMT5C heterochromatin retention domain (HRD), wild type, fluorescent fusion (domain or fragment)
